In publication doi:10.1101/2023.06.15.545204:

Target: BST4-mScarlet-I (Chlamydomonas reinhardtii)
Experiment: Slimfield microscopy with single particle tracking and molecular counting

interval between stoichiometry peaks: 5
stoichiometry N: 5
Substance: BST4-mScarlet-I (natural protein)
